Key:
A. fumigatus = experiment: Uptake assay of 68Ga-labelled conjugates in A. fumigatus; assay type: cell-based, Aspergillus fumigatus; details: iron-depleted AMM, 45 min, 37 °C
Experimental: Assays were performed as previously described. Briefly, uptake and competition assays were performed with A. fumigatus in iron-depleted and iron-replete Aspergillus minimal media (AMM), using a 96-well MultiScreen Filter Plates HTS (1 μm glass fiber filter, Merck Millipore, Darmstadt, Germany). Compounds were incubated for 45 min at 37 °C and filters measured in a gamma counter. Competition assays were performed in the same way except for pre-incubation with the iron-containing antifungal conjugates for 15 min, resulting in a competition at the MirB transporter to show specific binding to MirB.

in vivo = experiment: in vivo; parameters: species or system BALB/c mice; details: mouse, iv
Experimental: Stability test and biodistribution were conducted in 4–6 weeks-old female BALB/c mice (in-house breed, ZVTA Innsbruck). ^68Ga-labelled conjugates, dissolved in PBS (Ph. Eur. pH 7.4) and pH adjusted to pH 6.5 with sodium acetate, were injected via lateral tail vein using approximately 0.4 nmol of compound and a volume of 150 µL. For biodistribution, the same procedure was applied except for different time points of 45 and 90 min. Hereafter the animals were euthanized by cervical dislocation and the organs (blood, spleen, pancreas, stomach, liver, kidneys, heart, lung, muscle, femur) were removed and weighed. The activity of the samples was measured in a gamma counter and the results were calculated as a percentage of injected dose per gram tissue (%ID/g).

[1] = assay type: physicochemical; details: pH 7.4
Experimental: Aliquots of 50 µL of ^68Ga-labelled conjugate (~5 µM) were added to 450 µL of phosphate-buffered saline pH 7.4 (PBS) and 500 µL of Octanol into a 1.5 mL Eppendorf tube. The mixture was vigorously shaken for 20 min at 1400 rpm in a standard vortex (MS 3, IKA, Staufen, Germany) and hereafter, 200 µL of each phase removed and measured in a gamma counter (2480 automatic gamma counter Wizard2 3’’, Perkin Elmer, Waltham, MA, USA) LogD was calculated as the ratio of octanol/water phase using Excel. (n = 3, six technical replicates)

[2] = Biodistribution Intestine 45 min
[3] = Biodistribution Intestine 90 min
[4] = Biodistribution Pancreas 45 min
[5] = Biodistribution Pancreas 90 min

## CC(=O)N[C@@H]1CCCN(O)C(=O)/C=C(/C)CCOC(=O)[C@H](NC(=O)CCC(=O)N[C@@H](CC(N)=O)C(=O)N[C@@H](CC(C)C)C(=O)N[C@H](Cc2ccccc2)C(=O)O)CCCN(O)C(=O)/C=C(/C)CCOC(=O)[C@H](NC(C)=O)CCCN(O)C(=O)/C=C(/C)CCOC1=O (stereo in doubt) [[^68Ga]Ga-DAFC-succ-NLF, metal not drawn]
A. fumigatus
  Uptake into A. fumigatus hyphae normalized to uptake of [68Ga]Ga-TAFC: 13%
In vivo; Biodistribution Blood 45 min
  tissue uptake at 0.75 h: 0.41 ± 0.14 %ID/g
In vivo; Biodistribution Blood 90 min
  tissue uptake at 1.5 h: 0.05 ± 0.03 %ID/g
In vivo; Biodistribution Femur 45 min
  tissue uptake at 0.75 h: 1.76 ± 0.17 %ID/g
In vivo; Biodistribution Femur 90 min
  tissue uptake at 1.5 h: 0.31 ± 0.13 %ID/g
In vivo; Biodistribution Heart 45 min
  tissue uptake at 0.75 h: 0.18 ± 0.09 %ID/g
In vivo; Biodistribution Heart 90 min
  tissue uptake at 1.5 h: 0.05 ± 0.02 %ID/g
In vivo; [2]
  tissue uptake at 0.75 h: 0.4 ± 0.1 %ID/g
In vivo; [3]
  tissue uptake at 1.5 h: 0.36 ± 0.07 %ID/g
In vivo; Biodistribution Kidneys 45 min
  tissue uptake at 0.75 h: 3.27 ± 0.61 %ID/g
In vivo; Biodistribution Kidneys 90 min
  tissue uptake at 1.5 h: 2.93 ± 0.38 %ID/g
In vivo; Biodistribution Liver 45 min
  tissue uptake at 0.75 h: 0.37 ± 0.07 %ID/g
In vivo; Biodistribution Liver 90 min
  tissue uptake at 1.5 h: 0.3 ± 0.05 %ID/g
In vivo; Biodistribution Lung 45 min
  tissue uptake at 0.75 h: 0.61 ± 0.14 %ID/g
In vivo; Biodistribution Lung 90 min
  tissue uptake at 1.5 h: 0.21 ± 0.05 %ID/g
In vivo; Biodistribution Muscle 45 min
  tissue uptake at 0.75 h: 0.08 ± 0.01 %ID/g
In vivo; Biodistribution Muscle 90 min
  tissue uptake at 1.5 h: 0.11 ± 0.14 %ID/g
In vivo; [4]
  tissue uptake at 0.75 h: 0.14 ± 0.05 %ID/g
In vivo; [5]
  tissue uptake at 1.5 h: 0.06 ± 0.02 %ID/g
In vivo; Biodistribution Spleen 45 min
  tissue uptake at 0.75 h: 0.23 ± 0.04 %ID/g
In vivo; Biodistribution Spleen 90 min
  tissue uptake at 1.5 h: 0.19 ± 0.03 %ID/g
In vivo; Biodistribution Stomach 45 min
  tissue uptake at 0.75 h: 0.19 ± 0.09 %ID/g
In vivo; Biodistribution Stomach 90 min
  tissue uptake at 1.5 h: 0.11 ± 0.01 %ID/g
[1]
  logD: -2.84 ± 0.17

## CC(=O)NC1CCCN(O)C(=O)/C=C(/C)CCOC(=O)C(NC(=O)[C@@H](Cc2ccccc2)NC(=O)[C@H](CC(C)C)NC(=O)[C@H](CC(N)=O)NC(C)=O)CCCN(O)C(=O)/C=C(/C)CCOC(=O)C(NC(C)=O)CCCN(O)C(=O)/C=C(/C)CCOC1=O (stereo in doubt) [[^68Ga]Ga-DAFC-NLF-Ac, metal not drawn]
A. fumigatus
  Uptake into A. fumigatus hyphae normalized to uptake of [68Ga]Ga-TAFC: 35%
In vivo; female, BALB/c, 0.4 nmol, total radioactivity, Kidney uptake
  tissue uptake: 36 %ID/g
In vivo; Biodistribution Blood 45 min
  tissue uptake at 0.75 h: 0.46 ± 0.1 %ID/g
In vivo; Biodistribution Blood 90 min
  tissue uptake at 1.5 h: 0.13 ± 0.1 %ID/g
In vivo; Biodistribution Femur 45 min
  tissue uptake at 0.75 h: 0.16 ± 0.05 %ID/g
In vivo; Biodistribution Femur 90 min
  tissue uptake at 1.5 h: 0.59 ± 0.5 %ID/g
In vivo; Biodistribution Heart 45 min
  tissue uptake at 0.75 h: 0.22 ± 0.02 %ID/g
In vivo; Biodistribution Heart 90 min
  tissue uptake at 1.5 h: 0.12 ± 0.11 %ID/g
In vivo; [2]
  tissue uptake at 0.75 h: 3.09 ± 0.03 %ID/g
In vivo; [3]
  tissue uptake at 1.5 h: 4.85 ± 1.78 %ID/g
In vivo; Biodistribution Kidneys 45 min
  tissue uptake at 0.75 h: 35.7 ± 1.73 %ID/g
In vivo; Biodistribution Kidneys 90 min
  tissue uptake at 1.5 h: 39.9 ± 2.66 %ID/g
In vivo; Biodistribution Liver 45 min
  tissue uptake at 0.75 h: 0.85 ± 0.51 %ID/g
In vivo; Biodistribution Liver 90 min
  tissue uptake at 1.5 h: 0.44 ± 0.05 %ID/g
In vivo; Biodistribution Lung 45 min
  tissue uptake at 0.75 h: 0.62 ± 0.01 %ID/g
In vivo; Biodistribution Lung 90 min
  tissue uptake at 1.5 h: 0.32 ± 0.06 %ID/g
In vivo; Biodistribution Muscle 45 min
  tissue uptake at 0.75 h: 0.18 ± 0.08 %ID/g
In vivo; Biodistribution Muscle 90 min
  tissue uptake at 1.5 h: 0.17 ± 0.07 %ID/g
In vivo; [4]
  tissue uptake at 0.75 h: 0.21 ± 0.06 %ID/g
In vivo; [5]
  tissue uptake at 1.5 h: 0.1 ± 0.06 %ID/g
In vivo; Biodistribution Spleen 45 min
  tissue uptake at 0.75 h: 0.35 ± 0.1 %ID/g
In vivo; Biodistribution Spleen 90 min
  tissue uptake at 1.5 h: 0.24 ± 0.07 %ID/g
In vivo; Biodistribution Stomach 45 min
  tissue uptake at 0.75 h: 0.69 ± 0.31 %ID/g
In vivo; Biodistribution Stomach 90 min
  tissue uptake at 1.5 h: 2.04 ± 0.74 %ID/g
[1]
  logD: -0.8 ± 0.08
